Laboratory results published in patent US20150299277A1, “AGENT FOR TREATING OR PREVENTING SYSTEMIC INFLAMMATORY RESPONSE SYNDROME” (THE UNIVERSITY OF TOKYO, priority 2012, published 2015).
Entries after “also recorded” stand apart in the source; their conditions may differ. Ends that are not written are not given here.

Legend:
[1] = system: Calf Thymus Histones on HUVEC; experiment: Cytotoxic assay: suppression of histone cytotoxicity on HUVEC; type: cell-based, human
Procedure: After culturing for 1 hr in a medium concurrently containing 100 μg/mL Calf Thymus Histones and APC (200 nM), PTX3 (40 μg/mL), CRP (40 μg/mL) or SAP (40 μg/mL), the level of toxic activity was measured by FACS.
(§1) Normal human umbilical vein endothelial cells (HUVECs) were cultured in EGM2 medium (Clonetics). The cells after culture were washed with PBS, added with Opti-MEM medium containing an product of incubation of activated protein C (APC), PTX3, C reactive protein (CRP) or Serum amyloid P component (SAP) with histone for 1 hr, and the cells were further cultured for 1 hr. Propidium iodide (PI) was added to the medium after culture at a final concentration of 10 μg/mL, and the cells were stained for 10 min. The cells were washed with PBS, detached and analyzed by flow cytometry.
The histone cytotoxicity on HUVEC was evaluated by propidium iodide (PI) staining.
Lastly, capacity of suppressing the cytotoxic activity of histone was confirmed. Since this experiment requires a certain amount of protein and an endotoxin-elimination as treatment, a protein was expressed and purified at a 500 mL culture scale, and subjected to an endotoxin-elimination treatment (FIG. 18). In the case of PTX3 N-terminal domain, about 10 mg was obtained at a 500 mL culture scale, and a loss by the endotoxin-elimination treatment was scarcely observed. […] A capacity of fragment proteins obtained at a 500 mL scale on HUVEC to suppress histone cytotoxicity was studied. […] In consideration of the experiments relating to the binding and aggregation, all fragments were considered to possibly have a certain level of suppressive capacity.

histone H4 on HUVEC = experiment: as above; type: cell-based, human
Procedure: as §1
Using each recombinant histone instead of Calf Thymus Histones, a suppressive effect of full-length PTX3 or the N-terminal domain of PTX3 on histone cytotoxicity was studied in the same manner.
Lastly, capacity of suppressing the cytotoxic activity of histone was confirmed. Since this experiment requires a certain amount of protein and an endotoxin-elimination as treatment, a protein was expressed and purified at a 500 mL culture scale, and subjected to an endotoxin-elimination treatment (FIG. 18). In the case of PTX3 N-terminal domain, about 10 mg was obtained at a 500 mL culture scale, and a loss by the endotoxin-elimination treatment was scarcely observed. […] A capacity of fragment proteins obtained at a 500 mL scale on HUVEC to suppress histone cytotoxicity was studied. […]

Calf Thymus Histones = experiment: Aggregation with histone, absorbance at 310 nm; type: binding; settings: mixture with Calf Thymus Histones
Procedure: The lower left figure and the lower right figure show the measurement results of absorbance at 310 nm of a mixture of a wild-type or oligomer formation capacity-deficient mutant of PTX3 N-terminal domain having each concentration and 0.1 mg/mL Calf Thymus Histones at 1:1 vol.
The aggregation activity of PTX3 and other pentraxins to histone was evaluated. Calf Thymus Histones (50 μg/mL) were mixed with a PTX3 fragment or the other pentraxin at each concentration, and the absorbance at the wavelength of 310 nm was measured. Before mixing, samples were dialyzed against 4 mM CaCl2-containing TBS.

| Substance | capacity to suppress cytotoxicity of bovine thymus-derived histone on HUVEC [1] | capacity to suppress cytotoxicity of recombinant histone H4 on HUVEC (histone H4 on HUVEC) | aggregation with Calf Thymus Histones, absorbance at 310 nm (Calf Thymus Histones) | suppression of toxic activity of Calf Thymus Histones on HUVEC ([1]; 100 μg/mL Calf Thymus Histones, 40 μg/mL protein, 1 hr, PI staining, FACS) |
| --- | --- | --- | --- | --- |
| PTXN18: E. coli-expressed fragment of about 50 amino acids of PTX3 N-terminal domain with His-tag and TEV sequence, probably amino acids 18-67 (ENLYFQGENSDDYDLMYVNLDNEIDNGLHPTEDPTPCDCGQEHSEWDKLFIMLENSQ; not fully specified; cysteine pairing not given here) | almost equivalent to that of the PTX3 N-terminal domain | almost equivalent to that of the PTX3 N-terminal domain |  |  |
| SAP: Serum amyloid P component, short pentraxin used as comparator [reference compound] |  |  | no aggregation capacity; also recorded: scarcely showed an aggregation activity | do not have such suppressive effect |
